{
  "source": "paper PMC3500403",
  "about": "(Developmental cell, 2012)",
  "target": "taxol stabilized microtubules (UniProt Q6B856 1-445)",
  "assay": "co-sedimentation",
  "data": [
    {"binder": "C. elegans SKA-1 microtubule binding domain (residues 118-243) (domain or fragment, UniProt Q9XWS0 118-243, looked up) NDIRIVPQITDEEFKTIPKYQLGRLTLEMMNEIVSKMDDFLMKKSKILGKTNKQLTRSDREVLDNWRELEMKARKRLPTTLFFIETDIRPMLQDRLRPSFAKAIPCLRHIRRIREERCGPLTFYYP", "values": [
      {"measurement": "Kd", "result": 6.3, "unit": "µM"}
    ]}
  ]
}
